The text below walks through data of article PMC7536116.

Read-outs that look alike come from different tables or passages of the source.

What all share (test): GFET
The target in data set [1] is T1, TNF-alpha (human, UniProt P01375 77-233).
Data set [2] concerns the target T1, TNF-alpha. The source holds these as a separate data set.
The target of data set [3] is T1, TNF-alpha. This is another data set of the same source.

T1 sequence (P01375 77-233): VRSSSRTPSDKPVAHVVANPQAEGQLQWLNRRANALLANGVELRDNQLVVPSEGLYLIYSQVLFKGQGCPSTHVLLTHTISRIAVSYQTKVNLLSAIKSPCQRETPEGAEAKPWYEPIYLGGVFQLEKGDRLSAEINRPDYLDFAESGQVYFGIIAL

One may read the Kd as the equilibrium constant for the complex coming apart. A high value points to lower affinity. Turning to TGGTGGATGGCGCAGTCGGCGACAA (ssDNA, 5'-NH2 (amine, coupled to PASE on graphene)) [VR11 aptamer], the Kd in data set [1] came to 28.4 nM; in data set [2], 28.4 nM; in data set [3], 27.4 nM.
